Measurements: US20010052137A1, “Axin domain-like polypeptide inhibitors of glycogen synthase kinase 3 beta activity and activators of wnt signaling” (Trustees of the University of Pennsylvania, priority 2000, published 2001)

Key:
[1] = test system: carboxyl-terminal fragment of Xenopus frizzled 3; assay: Yeast two hybrid assay, interaction with frizzled 3 fragment; assay type: binding; conditions: beta-galactosidase filter assay in S. cerevisiae
Description: (§1) FL Xaxin was cloned in frame with the GAL4 DNA binding domain (BD) in plasmid pAS2-1 (Clontech) to yield BD plasmid. Expression of BD plasmid yielded a Xaxin-GAL4 fusion protein. FL Xaxin, deltaDIX Xaxin, and a fragment (designated “AID”) encoding amino acid residues 489-777 of Xaxin were cloned in frame with the GAL4 transcriptional activation domain (AD) in the vector pACT2 to yield AD plasmids. Yeast were transformed with BD and AD plasmids using previously described protocols (Clontech, Palo Alto, Calif.). Transformed colonies were selected and assayed for beta-galactosidase activity in order to detect interacting proteins. In addition, three Xenopus axin partial length cDNAs (designated Y2H 2, Y2H 6, Y2H 7; all in plasmid pACT2) isolated from a previous yeast two hybrid screen (Hedgepeth et al., 1999, Mech. Develop. 80:147-151) were analyzed. Purification of GID
(§2) Using the yeast two hybrid assay, the ability of axin to bind with itself, with other members of the wnt pathway, or with the G(alpha)q subunit of heterotrimeric G-proteins, was investigated. […]
(§3) Saccharomyces cerevisiae cells were transformed with the bait vector and with one of the target vectors. Interaction was assessed using a filter assay to detect beta-galactosidase activity, as described (Fields et al., 1989, Nature 340:245-247; Harper et al., 1993, Cell 75:805-816). […]

GSK-3 beta [2] = assay: Co-immunoprecipitation of GSK-3 beta with Myc-tagged Xaxin constructs in Xenopus oocytes; assay type: binding; conditions: Myc-tagged construct co-expressed with GSK-3 beta in Xenopus oocytes; anti-Myc IP, anti-GSK-3 beta blot
GSK-3 beta [3] = assay: Yeast two hybrid assay, interaction with GSK-3 beta; assay type: binding; conditions: beta-galactosidase filter assay in S. cerevisiae
Description: as §1, §2, §3

[4] = test system: GSK-3 beta protein lacking amino-terminal or carboxyl-terminal residues; assay: Binding of full length axin to truncated GSK-3 beta; conditions: GSK-3 beta lacking as many as 62 amino-terminal or 132 carboxyl-terminal residues
beta-catenin = beta-catenin protein accumulation in Xenopus oocytes (immunoblot); assay type: cell-based; conditions: construct mRNA expressed in Xenopus oocytes
Description: FIG. 2A is an image of an immunoblot of Xenopus cytoplasmic extracts obtained from Xenopus embryos in which beta-catenin was expressed, using an antibody which binds specifically with beta-catenin (described in McCrea et al., 1993, J. Cell. Biol. 123:477-84). The embryo corresponding to lane 2 was incubated in the presence of 20 millimolar LiCI. Extracts corresponding to lanes 3-5, 7, and 8 were obtained from embryos in which full-length (lane 8) Xaxin or the C-term (lane 3), GID1 (“GID”; lanes 4 and 7), or N-term (lane 5) fragments of Xaxin were expressed.
Although endogenous GSK-3 beta is not present at sufficient levels to detect using the tau assay, inhibition of GSK-3 beta is known to cause stabilization of cytoplasmic beta-catenin (Cadigan et al., 1997, Genes Dev. 11:3286-3305; Miller et al., 1996, Genes Develop. 10:2527-2539), and this serves as a widely used assay for downstream activation of wnt signaling. Inhibition of endogenous GSK-3 beta activity also causes stabilization of beta-catenin in Xenopus embryos and oocytes (Hedgepeth et al., 1997, Develop. Biol. 185:82-91; Yost et al., 1998, Cell 93:1031-1041; Yost et al., 1996, Genes Develop. 10:1443-1454). For this reason, levels of beta-catenin protein were assessed in Xenopus oocytes which had been injected either with full length Xaxin mRNA or with mRNA encoding one of the amino-terminal, GID, or carboxyl-terminal domains of Xaxin.

[5] = biological target: T1, G(alpha)q subunit of heterotrimeric G-proteins (Homo sapiens, UniProt P50148); assay: Yeast two hybrid assay, interaction with G(alpha)q; assay type: binding; conditions: beta-galactosidase filter assay in S. cerevisiae
T1 sequence (P50148 1-359): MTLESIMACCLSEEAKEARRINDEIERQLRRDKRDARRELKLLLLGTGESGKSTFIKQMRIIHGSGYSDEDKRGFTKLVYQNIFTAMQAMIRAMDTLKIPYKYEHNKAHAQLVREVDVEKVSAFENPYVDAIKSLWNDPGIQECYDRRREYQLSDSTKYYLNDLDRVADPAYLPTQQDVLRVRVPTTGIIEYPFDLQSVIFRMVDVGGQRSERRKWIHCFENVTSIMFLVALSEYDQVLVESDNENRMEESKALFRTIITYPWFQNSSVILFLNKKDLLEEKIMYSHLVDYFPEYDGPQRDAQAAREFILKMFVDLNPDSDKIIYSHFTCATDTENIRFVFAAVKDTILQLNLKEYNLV
Description: as §1, §2, §3

B1: full length Xaxin: full length Xenopus axin, amino acid residues 1-842 (SEQ ID NO: 8) (protein, listed as Xenopus laevis)
chain: MSVKGKGFPLDLGGSFTEDAPRPPVPGEEGELITTDQRPFSHTYYSLKNDGIKNETSTATPRRPDLDLGYEPEGSASPTPPYLKWAESLHSLLDDQDGIHLFRTFLQQENCADLLDFWFACSGFRKLEPNDSKVEKRLKLAKAIYKKYVLDSNGIVSRQIKPATKSFIKDCVLRQQIDPAMFDQAQMEIQSMMEDNTYPVFLKSDIYLEYTTIGGESPKNYSDQSSGSGTGKGPSGYLPTLNEDEEWRCDQGGEHERERECIPSSLFSQKLALDSSSHCAGSNRRLSDGREFRPGTWREPVNPYYVNTGYAGAPVTSANDSEQQSMSSDADTMSLTDSSVDGIPPYRLRKHYRREMQESANANGRGPLPHIPRTYHMPKDIHVDPEKFAAELISRLEGVLRDREAEQKLEERLKRVRAEEEGDDGDVSSGPSVISHKLPSGPPMHHFNSRYSETGCVGMQIRDAHEENPESILDEHVQRVMKTPGCQSPGTGRHSPKSRSPDGHLSKTLPGSLGTMQTGHGKHSSKSTAKVDSGNLHHHKHVYHHVHHHGGVKPKEQIDGESTQRVQTNFPWNVESHNYATKSRNYAESMGMAPNPMDSLAYSGKVSMLSKRNAKKADLGKSESASHEMPVVPEDSERHQKILQWIMEGEKEIIRHKKSNHSSSSAKKQPPTELARPLSIERPGAVHPWVSAQLRNVVQPSHPFIQDPTMPPNPAPNPLTQLVSKPGARLEEEEKKAAKMPQKQRLKPQKKNVSAPSQPCDNIVVAYYFCGEPIPYRTMVKGRVVTLGQFKELLTKKGNYRYYFKKVSDEFDCGVVFEEVREDDMILPIYEEKIIGQVEKID
interaction with carboxyl-terminal fragment of Xenopus frizzled 3 [1]: did not interact | binding with GSK-3 beta (co-immunoprecipitation) (GSK-3 beta [2]): bound | interaction with GSK-3 beta (GSK-3 beta [3]): interacted strongly | binding with truncated GSK-3 beta [4]: able to bind | accumulation of beta-catenin (beta-catenin): not observed | interaction with G(alpha)q [5]: did not interact
